Experimental findings from patent US20210338838A1 are described below.

Assay [1] has as its target C3b (complement component 3b) (UniProt P01024). In words: relative C3b-binding assay, detection antibody AbCam OX-24 (#Ab112197).
For assay [2] the target is unchanged. In words: relative C3b-binding assay, percent of CFH-Risk, detection antibody AbCam OX-24 (#Ab112197).
Assay [3] shares this target. In words: rank of binding affinity among six proteins, plate-based binding assays.
Assay [4] has the same target. In words: cell-based or functional assay.
Assay [5] shares this target. In words: plate-based binding assay, His-tagged recombinant protein from HEK293 cells.

pKd: −log10 of the molar value.

protective CFH-I62-Y402-E936 (full-length complement factor H), sequence (P08603 19-1231 V62I): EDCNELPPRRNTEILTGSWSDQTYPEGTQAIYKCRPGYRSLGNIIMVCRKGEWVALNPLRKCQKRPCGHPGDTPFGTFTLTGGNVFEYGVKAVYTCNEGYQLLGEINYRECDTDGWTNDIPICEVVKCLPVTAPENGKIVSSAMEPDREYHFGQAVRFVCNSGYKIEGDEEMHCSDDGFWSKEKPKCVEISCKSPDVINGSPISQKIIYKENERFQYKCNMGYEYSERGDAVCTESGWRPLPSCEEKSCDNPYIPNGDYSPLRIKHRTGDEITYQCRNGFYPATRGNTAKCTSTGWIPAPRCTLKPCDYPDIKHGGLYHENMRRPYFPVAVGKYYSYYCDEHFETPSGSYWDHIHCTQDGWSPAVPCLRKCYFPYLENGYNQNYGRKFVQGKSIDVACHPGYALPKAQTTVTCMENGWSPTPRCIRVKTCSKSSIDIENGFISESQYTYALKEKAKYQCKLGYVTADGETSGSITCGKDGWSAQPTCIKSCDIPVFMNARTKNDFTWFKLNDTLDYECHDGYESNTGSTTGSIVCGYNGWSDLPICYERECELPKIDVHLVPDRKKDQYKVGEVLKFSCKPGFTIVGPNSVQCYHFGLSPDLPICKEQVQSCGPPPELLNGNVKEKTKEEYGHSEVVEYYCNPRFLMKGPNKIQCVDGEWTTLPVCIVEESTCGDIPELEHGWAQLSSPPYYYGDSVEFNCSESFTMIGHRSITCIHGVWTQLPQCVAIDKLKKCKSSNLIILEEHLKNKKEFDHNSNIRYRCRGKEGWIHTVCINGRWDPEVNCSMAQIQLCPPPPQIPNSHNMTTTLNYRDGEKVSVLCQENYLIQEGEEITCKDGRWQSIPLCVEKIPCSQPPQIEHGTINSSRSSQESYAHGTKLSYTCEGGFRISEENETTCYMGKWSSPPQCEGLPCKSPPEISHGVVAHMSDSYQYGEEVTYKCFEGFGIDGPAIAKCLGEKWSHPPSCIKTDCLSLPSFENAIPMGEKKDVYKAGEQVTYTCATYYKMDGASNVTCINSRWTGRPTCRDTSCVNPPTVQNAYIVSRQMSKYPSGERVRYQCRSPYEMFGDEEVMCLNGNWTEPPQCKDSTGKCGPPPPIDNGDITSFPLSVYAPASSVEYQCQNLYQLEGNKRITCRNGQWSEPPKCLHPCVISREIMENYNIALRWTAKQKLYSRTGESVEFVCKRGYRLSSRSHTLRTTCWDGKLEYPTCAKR
protective CFHT-I62-Y402 (truncated complement factor H ending in SFTL), sequence (P08603 other isoform, or with tags, fused parts or gaps): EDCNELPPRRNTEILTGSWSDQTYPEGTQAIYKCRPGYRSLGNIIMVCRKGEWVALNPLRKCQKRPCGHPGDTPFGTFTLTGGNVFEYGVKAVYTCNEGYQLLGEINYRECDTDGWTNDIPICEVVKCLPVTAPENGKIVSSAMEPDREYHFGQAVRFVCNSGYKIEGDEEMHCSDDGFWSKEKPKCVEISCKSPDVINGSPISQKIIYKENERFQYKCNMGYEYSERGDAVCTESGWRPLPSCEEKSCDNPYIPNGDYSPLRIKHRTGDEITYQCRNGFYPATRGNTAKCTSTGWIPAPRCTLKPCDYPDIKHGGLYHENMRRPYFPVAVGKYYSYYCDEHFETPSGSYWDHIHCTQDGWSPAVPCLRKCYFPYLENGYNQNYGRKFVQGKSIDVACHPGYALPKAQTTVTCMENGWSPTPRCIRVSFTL
CFH-Del (CFH of the CFHR3/1 deletion haplotype, V62-Y402-E936), sequence (P08603 19-1231, stated change not applied): as the sequence (P08603 19-1231 V62I) above, with I44V counted along it
CFHT-Neu/Del (truncated CFH of the neutral and deletion haplotypes, V62-Y402), sequence (P08603 other isoform, or with tags, fused parts or gaps): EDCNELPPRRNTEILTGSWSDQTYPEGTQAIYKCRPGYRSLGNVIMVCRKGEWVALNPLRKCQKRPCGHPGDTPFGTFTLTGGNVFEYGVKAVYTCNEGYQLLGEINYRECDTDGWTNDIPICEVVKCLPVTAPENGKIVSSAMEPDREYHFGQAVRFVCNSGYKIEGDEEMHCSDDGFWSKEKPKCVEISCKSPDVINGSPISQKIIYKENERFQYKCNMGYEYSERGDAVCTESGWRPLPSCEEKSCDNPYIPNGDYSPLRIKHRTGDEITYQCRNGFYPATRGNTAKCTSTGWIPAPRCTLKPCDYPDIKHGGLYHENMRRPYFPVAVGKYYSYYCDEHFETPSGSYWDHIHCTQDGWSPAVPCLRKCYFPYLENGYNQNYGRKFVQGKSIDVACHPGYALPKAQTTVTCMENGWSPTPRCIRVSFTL

In assay [1], “CFH-Del (CFH of the CFHR3/1 deletion haplotype, V62-Y402-E936) (from UniProt P08603 19-1231)” returned a Binding Potential of 24. In assay [2], the % FH-Risk was 107%.

In turn, “CFH-Neu (neutral variant of full-length CFH, V62-Y402-D936) (from UniProt P08603 19-1231)” showed a Binding Potential in assay [1] of 29. In addition, the % FH-Risk in assay [2] worked out at 134%.

In assay [3], “CFH-V62-H402-E936 (risk variant of full-length CFH) (from UniProt P08603 19-1231)” yielded a Binding Affinity Rank (1 best to 6 worst) of 2 rank. Besides, in assay [1], the Binding Potential was found to be 22. The same substance had a % FH-Risk in assay [2] of 100%.

“CFHT-Neu/Del (truncated CFH of the neutral and deletion haplotypes, V62-Y402) (from UniProt P08603 19-445)” came in with a Binding Potential in assay [1] of 3. The % FH-Risk in assay [2] was found to be 15%.

“CFHT-V62-H402 (risk variant of truncated CFH) (from UniProt P08603 19-445)” yielded a Binding Affinity Rank (1 best to 6 worst) in assay [3] of 5 rank. Further, the Binding Potential in assay [1] worked out at 2. The % FH-Risk in assay [2] came out at 10%.

Consider “eCFHT-SE (engineered truncated CFH, I62-Y402, ending in SESFTL) (from UniProt P08603 19-445)”, for which the Binding Affinity Rank (1 best to 6 worst) in assay [3] amounted to 6 rank. The Cofactor (IC50 value for iC3b 43-kDa band appearance) in assay [4] worked out at 89.7 nM. The pKd (usually the Kd on a negative log10 scale, so that one unit is a factor of ten) in assay [5] was 6.03.

For the substance “eCFHT-SK (engineered truncated CFH, I62-Y402, ending in SKSFTL) (from UniProt P08603 19-445)”, the Binding Affinity Rank (1 best to 6 worst) in assay [3] was determined as 3 rank. Moreover, in assay [4], the Cofactor (IC50 value for iC3b 43-kDa band appearance) is 37 nM. In assay [5], the pKd was 6.32.

In turn, “protective CFH-I62-Y402-E936 (full-length complement factor H) (from UniProt P08603 19-1231)” yielded a Binding Affinity Rank (1 best to 6 worst) in assay [3] of 1 rank. The substance further yielded a Cofactor (IC50 value for iC3b 43-kDa band appearance) in assay [4] of 9.2 nM. In addition, the pKd in assay [5] was 6.85. Besides, the Binding Potential in assay [1] turned out to be 29. In addition, the % FH-Risk in assay [2] was 133%.

With “protective CFHT-I62-Y402 (truncated complement factor H ending in SFTL) (from UniProt P08603 19-445)”, the Binding Affinity Rank (1 best to 6 worst) in assay [3] was found to be 4 rank. This substance also came in with a Cofactor (IC50 value for iC3b 43-kDa band appearance) in assay [4] of 31.2 nM. In assay [5], the pKd is 6.14. The Binding Potential in assay [1] was 4. The substance further gave a % FH-Risk in assay [2] of 17%.
